# Reference: article PMC4083873, “Expression and characterization of a β-fructofuranosidase from the parasitic protist Trichomonas vaginalis” (BMC Biochemistry, 2014)
# B1: T. vaginalis β-fructofuranosidase (Trichomonas vaginalis G3) (protein)
# chain: MNFSSRLKFHFEPLKGWMNDPNGLIQFKGEYHAFFQHYPFDTKWGPMHWGHATSKDLIHWEHKPIALYPDQEYENNGGCFSGSAIEFNDKLHIFYTGVGKSNGQSQCHAVMQDENRFIKDPKNPIIKSPPIEYGINDFRDPKVVKIENTFYMVVGTGKDGIGRVLLYKSSNLENWTFLNLLVEGKEYGQCCECPDLIQIDNQFFLMFSQMTGQGIGTLFFHLKYENGTFTVDKKLNQPIIGPDFYAPQTFHDDKGRRIIIGWLYNWKRVPPKEVDYAGAFTIPCELKYKEGKIVVNPIDEISHELKSESKFVEIQENKLIINGKPSVIHEGKIENIKILEDVKTIEVWINNGEFYYSTWLF
# notes: E. coli BL21(DE3); IMAC; calculated 44 kDa
# Assays:
# [1] = substrate: OC[C@H]1O[C@H](OC[C@H]2O[C@H](O[C@]3(CO)O[C@H](CO)[C@@H](O)[C@@H]3O)[C@H](O)[C@@H](O)[C@@H]2O)[C@H](O)[C@@H](O)[C@H]1O; test: coupled hexokinase / glucose-6-phosphate dehydrogenase / phosphoglucose isomerase assay of released fructose; Michaelis-Menten fit; type: biochemical, Trichomonas vaginalis; settings: 20 mM sodium acetate, pH 5.0, 30 °C, ~27 nM enzyme
# Excerpt: coupled hexokinase / glucose-6-phosphate dehydrogenase / phosphoglucose isomerase assay of released fructose; Michaelis-Menten fit on T. vaginalis β-fructofuranosidase
# [2] = substrate: OC[C@H]1O[C@@](CO)(O[C@H]2O[C@H](CO)[C@@H](O)[C@H](O)[C@H]2O)[C@@H](O)[C@@H]1O; test: coupled hexokinase / glucose-6-phosphate dehydrogenase assay of released glucose; Michaelis-Menten fit; type: biochemical, Trichomonas vaginalis; settings: 20 mM sodium acetate, pH 5.0, 30 °C, ~27 nM enzyme
# Excerpt: coupled hexokinase / glucose-6-phosphate dehydrogenase assay of released glucose; Michaelis-Menten fit on T. vaginalis β-fructofuranosidase
protein,measurement,setting,value
B1,Km,[1],5.5 ± 0.9 mM
same,Vmax,[1],368 µmol/min/mg
same,kcat,[1],270 ± 12 s⁻¹
same,Km,[2],20.6 ± 2.2 mM
same,Vmax,[2],1580 µmol/min/mg
same,kcat,[2],1160 ± 36 s⁻¹
